B1: Twister Ribozyme (parent)
chain: AACACUGCCAAUGCCGGUCCCAAGCCCGGAUAAAAGUGGAGGGGGCGG

Variants of B1 are the subject of the data set. The data set is described as follows: self-cleavage, relative activity (ratio to wild type); higher = more cleavage; co-transcriptional.
Regarding AAUACGGCCAAUGCCGGUCCCAAGCCCGGAUAAAAGUGGAGGGGGCGG, the self-cleavage was determined as 0.106.

For AACACUGCCAAUUGCGGUCCCAAGCCCGGAUAAAAGUGGAGGGGGCGG, the self-cleavage turned out to be 0.512.

Turning to AACACUGCCAAUGCCCGUCCCAAGCCCGGAUAAAAGUGGACGGGGCGG, the self-cleavage came to 0.0971.

On to AACACUGCCAAUGCCGGUCCCAUGCCCGGAUCAAAGUGGAGGGGGCGG, for which the self-cleavage was 0.464.

Consider AACACUGCCAAUGCCGGUCCAAAGUCCGGAUAAAAGUGGAGGGGGCGG, for which the self-cleavage was found to be 0.0609.

Regarding AACACUGGCAAUGCCGGUCCCAAGCCCGGAUAAAAGUGGAGGGGGCGC, the self-cleavage was 0.272.

As to AACACUGGCAAUGCCGGUCCCAAGCCCGGAUAAAAGUGGAGGGGGCGU, the self-cleavage turned out to be 0.263.

With AACAUUGCCAAUGCCGGUCCCAAGCCCGGCUAAAAGUGGAGGGGGCGG, the self-cleavage worked out at 0.542.

On to AACGCUGCCAAUGCCGGUCCCAAGCCCGGAUAAAAGUGGAGAGGGCGG, for which the self-cleavage amounted to 0.289.

For the variant AACACUGCCAAUGCCGGUCCCAAGCUCGGAUAAAAGAGGAGGGGGCGG, the self-cleavage is 0.121.

Turning to AACUCUGCCAAUGCCGGUCCCUAGCCCGGAUAAAAGUGGAGGGGGCGG, the self-cleavage amounted to 0.0795.

With AACACUGCCAAUGCCGGUCCCAAGCCAGGAUAUAAGUGGAGGGGGCGG, the self-cleavage stood at 0.334.

With AACACUGCCAAUGCCGGUCCCCAGCCCGGAUAAAAGUGGAGGGGGGGG, the self-cleavage was 0.869.

Regarding AACACUGCCAAUGCCGGUCCCAAGCCCGGAUAAAAGUGGAGGGGACGA, the self-cleavage was 0.785.

For AACACUGCCAAUGCCGGUCACAAGCCCGGAUAAGAGUGGAGGGGGCGG, the self-cleavage stood at 0.104.

With AACACUGCCAAGGCCGGUCCCAGGCCCGGAUAAAAGUGGAGGGGGCGG, the self-cleavage stood at 0.502.

As to AACACUGCCAAUGCCGGUCCCAAGCCCGGGUAAAAGUGGCGGGGGCGG, the self-cleavage amounted to 0.215.

Regarding AACACUGCCAAUGCCUGUCCCAAGCCCGGAUAAAAGUGAAGGGGGCGG, the self-cleavage worked out at 0.595.

Turning to AUCACUGCCAAUGCCGGUCCCAAGCCCGGAUAAAAGUGAAGGGGGCGG, the self-cleavage worked out at 0.12.

For AACACUGCCAAUGCCGGUCGCAAGCCCGGAUAAAAGUGGAUGGGGCGG, the self-cleavage came to 0.0931.

Consider AACACUUCCAAUGCCGGUGCCAAGCCCGGAUAAAAGUGGAGGGGGCGG, for which the self-cleavage is 0.0806.

As to AACACUGCCAAUGUCUGUCCCAAGCCCGGAUAAAAGUGGAGGGGGCGG, the self-cleavage came to 0.778.

For AACACUGCCAAUUCCGGUCCCAAGCCCGGAUAAAAAUGGAGGGGGCGG, the self-cleavage is 0.13.

As for AACACUGCCAAUGCCGGUCCCAAGACCGGAUAAUAGUGGAGGGGGCGG, the self-cleavage turned out to be 0.0738.

For the variant AACACUGCCAAUGCCGGUCCCAAGCCCGGAUAAAGGUGGAGGGGGAGG, the self-cleavage amounted to 0.747.

As to AACACUGGCAAUGCCGGUCCCAAGCCCGGAUAAAAGUGGAGGGCGCGG, the self-cleavage was 0.177.

On to AACACUGCCAAUGCCGGUCCCAAGCCCUGAUAAAAGUGGAGGGGGCGC, for which the self-cleavage amounted to 0.921.

On to ACCACUGCCAAGGCCGGUCCCAAGCCCGGAUAAAAGUGGAGGGGGCGG, for which the self-cleavage is 0.0824.

Consider AACACUGCCAAUGCUGGUCCCAAGCCCGGAUAAAAGUGGAGUGGGCGG, for which the self-cleavage came out at 0.235.

For the variant AACACUGCCAAUGCCGGUCCCAAGCCCGGAUAAAGGUGGAGGGGCCGG, the self-cleavage stood at 0.373.

As for AACACAGCCAAUGCCGGUCCCAAGCCCGGAUAAAAGUGGAGGGCGCGG, the self-cleavage amounted to 0.874.

As to AACACUGCCAAUGCCGGUCCCAAGCCCGGAUAACAGCGGAGGGGGCGG, the self-cleavage was determined as 0.116.

With AACACUGCCAAUGCCGCUCCCAAGCCCGUAUAAAAGUGGAGGGGGCGG, the self-cleavage came out at 0.0973.

In the case of AACACUGCCAAUGCCGCUCCCAAGCCCGAAUAAAAGUGGAGGGGGCGG, the self-cleavage is 0.0678.

For AACAAUGCCAAUGCCGGUCUCAAGCCCGGAUAAAAGUGGAGGGGGCGG, the self-cleavage was 0.465.

For AACACUGCCAAUGCCUGUCCCAAUCCCGGAUAAAAGUGGAGGGGGCGG, the self-cleavage was 0.0815.

Turning to AUCACUGCCAAUGCCGGUCCCAAGCCCCGAUAAAAGUGGAGGGGGCGG, the self-cleavage came to 0.533.

Turning to AACACUGCCAAUGCCGGACCCAAGCCCGGAUAAAAGUGGAGGCGGCGG, the self-cleavage is 0.144.

AUCACUGCCAAUGCCGGUCCCAAGCCCGGAUAAAAGUGGAGGGGACGG: the self-cleavage was determined as 0.514.

As for AACACUGCCAAUGCCGGUCCCAAGCCCGUAUACAAGUGGAGGGGGCGG, the self-cleavage was 0.821.

As for AACACUGCCAAUGCUGGUCCCAAGCCCGGAUAAAAGUGGAGGGUGCGG, the self-cleavage is 0.988.

For AACACUGCCAAUGUCGGUCCCAUGCCCGGAUAAAAGUGGAGGGGGCGG, the self-cleavage is 0.722.

Turning to AACACUGCCAAUGCCGGUCCCAAGCCCGGAUAAAACUUGAGGGGGCGG, the self-cleavage was 0.116.

On to AACACUGCCAAUGCCGGUCCCAAGCCGGGAUAAUAGUGGAGGGGGCGG, for which the self-cleavage is 0.0972.

On to AACACUGCCAAUGCGGGUCCCAAGCCCGGAUAAAAGUGGAGGAGGCGG, for which the self-cleavage was found to be 0.0569.

As to AACACUGCCGAUGCCGGUCCCAAGCCCGGAUAAAAGUGGAGGGGGCCG, the self-cleavage worked out at 0.809.

For the variant AACACUGCCAAUGCCGGUCCGAAGCCCGGAUAAAAGUGGAGGGGGCGA, the self-cleavage is 0.146.

Turning to AACACUGCCAAUGCCGGUCCCAAGCCCUGAUAAAAGUGGUGGGGGCGG, the self-cleavage was 0.156.

Turning to AACACUGGCAAUGCCGGUACCAAGCCCGGAUAAAAGUGGAGGGGGCGG, the self-cleavage was 0.0465.

In the case of AACACUGCCAAUGCCGUUCCCAAGCCCGGAUAAACGUGGAGGGGGCGG, the self-cleavage came to 0.305.

AACACUGCCACUGCCGGUCCCAAGCCCGGAUGAAAGUGGAGGGGGCGG: the self-cleavage amounted to 0.788.

AACACUGUCAAUGCCGGUCCCAAGCCCGGAUAAAAGUGGAGGUGGCGG: the self-cleavage is 0.131.

As for AACACGGCCAUUGCCGGUCCCAAGCCCGGAUAAAAGUGGAGGGGGCGG, the self-cleavage was 0.381.

With AACACUGCCAGUGCCGGUCCCAAGCCAGGAUAAAAGUGGAGGGGGCGG, the self-cleavage turned out to be 0.449.

For the origin of these results see the RNAGym collection of RNA variant scans (doi:10.7554/elife.80360).
